The series has as its system Escherichia coli TOP10. Description: shrunken log2 fold change of peptide-encoding DNA abundance (4.5 h post-induction vs induction); higher = less antimicrobial activity (less host growth inhibition). The conditions noted are these: time post-induction: 4.5 h; library: site-saturation at positions 5, 18, 19, 20.
In the case of RRIRARPPRLPRPRPRPYSAPRP, the “shrunken log2 fold change” value is -0.256.
In the case of RRIRVRPPRLPRPRPRPQGWPRP, the “shrunken log2 fold change” value came out at 0.522.
Next, RRIRERPPRLPRPRPRPVDSPRP: -0.0113.
Next, RRIRSRPPRLPRPRPRPHKMPRP: -0.156; RRIRRRPPRLPRPRPRPNMDPRP: -0.442; RRIRGRPPRLPRPRPRPSVYPRP: 0.286.
For the sequence RRIRHRPPRLPRPRPRPYCFPRP, the “shrunken log2 fold change” value is -0.792.
Next, RRIRMRPPRLPRPRPRPLWQPRP: 0.304; RRIRWRPPRLPRPRPRPVWDPRP: 0.177; RRIRNRPPRLPRPRPRPCSFPRP: -0.217.
With RRIRERPPRLPRPRPRPAVHPRP the figure was -0.144.
On to RRIRIRPPRLPRPRPRPVPHPRP, for which the “shrunken log2 fold change” value amounted to 0.0565.
With RRIRRRPPRLPRPRPRPKQQPRP the figure was 0.0775; with RRIRWRPPRLPRPRPRPLRPPRP, 0.923.
With RRIRMRPPRLPRPRPRPIKYPRP the figure was 0.188.
With RRIRRRPPRLPRPRPRPLPQPRP the figure was 0.436.
Turning to RRIRERPPRLPRPRPRPRRQPRP, the “shrunken log2 fold change” value is 0.00864.
Next, RRIRERPPRLPRPRPRPASFPRP: -0.285; RRIRCRPPRLPRPRPRPGFFPRP: 0.0565.
With RRIRIRPPRLPRPRPRPNRDPRP the figure was -0.0377; with RRIRRRPPRLPRPRPRPMVTPRP, 0.247; with RRIRRRPPRLPRPRPRPIIIPRP, 0.0103.
Next, RRIRVRPPRLPRPRPRPRFEPRP: 0.376; RRIRRRPPRLPRPRPRPWMLPRP: 0.227; RRIRCRPPRLPRPRPRPHKVPRP: -0.446.
For the sequence RRIRCRPPRLPRPRPRPCIAPRP, the “shrunken log2 fold change” value is -0.11.
With RRIRERPPRLPRPRPRPIFHPRP the figure was -0.395; with RRIRPRPPRLPRPRPRPKEGPRP, -0.00237.
Next, RRIRERPPRLPRPRPRPEFMPRP: -0.096; RRIRERPPRLPRPRPRPMYIPRP: -0.289.
Next, RRIRLRPPRLPRPRPRPNFLPRP: -0.153; RRIRTRPPRLPRPRPRPGKFPRP: -0.0892.
As to RRIRERPPRLPRPRPRPGGIPRP, the “shrunken log2 fold change” value was found to be 0.0836.
With RRIRCRPPRLPRPRPRPGINPRP the figure was -0.31; with RRIRTRPPRLPRPRPRPCDKPRP, -0.138; with RRIRSRPPRLPRPRPRPEMFPRP, -0.0055.
With RRIRFRPPRLPRPRPRPSRSPRP the figure was -0.104; with RRIRDRPPRLPRPRPRPLRYPRP, 0.00765; with RRIRYRPPRLPRPRPRPMGTPRP, -0.304.
Next, RRIRARPPRLPRPRPRPDYDPRP: 0.0454.
As to RRIRKRPPRLPRPRPRPYFRPRP, the “shrunken log2 fold change” value turned out to be 0.123.
Next, RRIRRRPPRLPRPRPRPCVGPRP: -0.147.
Take RRIRWRPPRLPRPRPRPQLEPRP: the “shrunken log2 fold change” value came out at 0.0296.
With RRIRSRPPRLPRPRPRPSDMPRP the figure was -0.373; with RRIRPRPPRLPRPRPRPRTAPRP, 0.562; with RRIRFRPPRLPRPRPRPQFWPRP, 0.206.
Next, RRIRSRPPRLPRPRPRPMQAPRP: 0.0325.
For RRIRLRPPRLPRPRPRPGWGPRP, the “shrunken log2 fold change” value was 0.335.
With RRIRVRPPRLPRPRPRPCNFPRP the figure was -0.0271; with RRIRARPPRLPRPRPRPEQWPRP, 0.0858.
Turning to RRIRERPPRLPRPRPRPDDMPRP, the “shrunken log2 fold change” value was -0.0903.
Next, RRIRMRPPRLPRPRPRPTCLPRP: 0.413.
With RRIRHRPPRLPRPRPRPRFMPRP, the “shrunken log2 fold change” value was 0.0821.
With RRIRGRPPRLPRPRPRPQSWPRP the figure was 0.445; with RRIRSRPPRLPRPRPRPMPMPRP, 0.0988.
With RRIRMRPPRLPRPRPRPYKRPRP the figure was -0.0368.
With RRIRWRPPRLPRPRPRPIASPRP the figure was 0.104; with RRIRRRPPRLPRPRPRPEPFPRP, -0.0448; with RRIRARPPRLPRPRPRPQYMPRP, -0.112.
Turning to RRIRSRPPRLPRPRPRPHIFPRP, the “shrunken log2 fold change” value was -0.197.
With RRIRKRPPRLPRPRPRPYDHPRP the figure was -0.084.
Next, RRIRPRPPRLPRPRPRPNDCPRP: 0.0214; RRIRCRPPRLPRPRPRPQHRPRP: -0.246; RRIRGRPPRLPRPRPRPAGCPRP: 0.973.
With RRIRKRPPRLPRPRPRPGKQPRP the figure was 0.599; with RRIRMRPPRLPRPRPRPSMKPRP, 0.0872.
With RRIRDRPPRLPRPRPRPSHGPRP, the “shrunken log2 fold change” value was -0.0107.
Regarding RRIRPRPPRLPRPRPRPYEVPRP, the “shrunken log2 fold change” value was -0.125.
With RRIRTRPPRLPRPRPRPGLIPRP the figure was -1.04; with RRIRFRPPRLPRPRPRPTDDPRP, -0.019; with RRIRPRPPRLPRPRPRPMKEPRP, 0.104.
Next, RRIRNRPPRLPRPRPRPVWKPRP: 0.119; RRIRWRPPRLPRPRPRPDSYPRP: 0.00709; RRIRERPPRLPRPRPRPNHFPRP: -0.799.
With RRIRFRPPRLPRPRPRPNCQPRP the figure was -0.508; with RRIRNRPPRLPRPRPRPKRHPRP, -0.455; with RRIRSRPPRLPRPRPRPPFEPRP, 0.518.
Consider RRIRERPPRLPRPRPRPNVTPRP, for which the “shrunken log2 fold change” value was -0.199.
Next, RRIRIRPPRLPRPRPRPFGMPRP: -0.498; RRIRLRPPRLPRPRPRPHCIPRP: -0.0543.
Next, RRIRMRPPRLPRPRPRPNMNPRP: -0.056.
Turning to RRIRWRPPRLPRPRPRPDLLPRP, the “shrunken log2 fold change” value was found to be 0.0586.
Next, RRIRVRPPRLPRPRPRPARNPRP: 0.414.
Next, RRIRNRPPRLPRPRPRPDAWPRP: 0.0835; RRIRPRPPRLPRPRPRPGGEPRP: 0.601.
With RRIRHRPPRLPRPRPRPFIEPRP the figure was -0.276; with RRIRTRPPRLPRPRPRPKDDPRP, -0.124; with RRIRARPPRLPRPRPRPSNTPRP, -0.31.
Regarding RRIRCRPPRLPRPRPRPHLFPRP, the “shrunken log2 fold change” value is -0.198.
For the sequence RRIRIRPPRLPRPRPRPYGHPRP, the “shrunken log2 fold change” value is 0.0184.
With RRIRLRPPRLPRPRPRPGFGPRP, the “shrunken log2 fold change” value is 0.189.
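Further: peptides expressed intracellularly from a pBAD plasmid library in pooled LB shake-flask culture, induced with 0.3% L-arabinose, DNA abundance read by NGS, three biological replicates, DESeq2 with apeglm shrinkage.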
